Reference: article PMC4091638

T1: Mmm1-SOG (miniSOG fused to the cytosolic face of Mmm1) (S. cerevisiae), P41800
T1 chain: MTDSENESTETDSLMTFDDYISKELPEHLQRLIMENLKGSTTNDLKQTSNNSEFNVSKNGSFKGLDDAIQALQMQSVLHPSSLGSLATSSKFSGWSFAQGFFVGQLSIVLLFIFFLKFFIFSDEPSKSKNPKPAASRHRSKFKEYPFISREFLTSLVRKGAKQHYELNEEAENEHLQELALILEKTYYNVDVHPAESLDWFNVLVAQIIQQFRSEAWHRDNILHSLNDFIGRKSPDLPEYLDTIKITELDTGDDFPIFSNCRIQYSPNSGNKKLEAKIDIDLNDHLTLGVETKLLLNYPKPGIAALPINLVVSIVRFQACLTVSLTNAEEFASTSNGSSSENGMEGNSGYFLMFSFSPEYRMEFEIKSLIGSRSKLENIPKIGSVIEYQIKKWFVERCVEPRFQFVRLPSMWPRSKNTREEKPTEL

B1: Mdm34-SOS (IFP1.4 fused to the cytosolic face of Mdm34), P53083 1-459 (natural protein)
chain: MSFRFNEAVFGDNSFNERIREKLSTALNSPSKKKLDILKSGIKVQKVDFPTIPQLEILDLDIITQPKSLAKGICKISCKDAMLRIQTVIESNLLLINEQDTPSFTMPQLINNGSFTIPITMTFSSIELEAITNIFVKNPGIGISFNDVDLDFKFDCSVKILQSTIERRLKESMHVVFKDVLPSLIFNTSQNWFTNRGESTSTIPGKREHHHQQTTMSRNVILDGSDFQELSPINMLRLSSIVSSRSTLSLHSTVMNSLSAIPGCLERQNLYRFISRMPSLNNYYSSQSFPQPKSSTVSSKQLVKPFYCSHNLLPKTVLDSSQYDLATITKIQSRLFDRSNSNDDNAKPRRRKIKCKKTRTPSNLQSQGEQAVDDSTAIETVTSTPVQTPIPELEEQSPPYLKTTVSIRDKYVIPEKISLNLDSKKDTSKKKPFYFIGLNSQEPSNNWKWGMEDSPPPYH
B2: SOS-Mdm34 (IFP1.4 fused to the N-terminus of Mdm34, facing the intermembrane space), P53083 1-459 (natural protein)
chain: MSFRFNEAVFGDNSFNERIREKLSTALNSPSKKKLDILKSGIKVQKVDFPTIPQLEILDLDIITQPKSLAKGICKISCKDAMLRIQTVIESNLLLINEQDTPSFTMPQLINNGSFTIPITMTFSSIELEAITNIFVKNPGIGISFNDVDLDFKFDCSVKILQSTIERRLKESMHVVFKDVLPSLIFNTSQNWFTNRGESTSTIPGKREHHHQQTTMSRNVILDGSDFQELSPINMLRLSSIVSSRSTLSLHSTVMNSLSAIPGCLERQNLYRFISRMPSLNNYYSSQSFPQPKSSTVSSKQLVKPFYCSHNLLPKTVLDSSQYDLATITKIQSRLFDRSNSNDDNAKPRRRKIKCKKTRTPSNLQSQGEQAVDDSTAIETVTSTPVQTPIPELEEQSPPYLKTTVSIRDKYVIPEKISLNLDSKKDTSKKKPFYFIGLNSQEPSNNWKWGMEDSPPPYH

Biological target: T1, Mmm1-SOG (miniSOG fused to the …)
Test: singlet oxygen triplet energy transfer
Conditions: remark: other sources report otherwise

Row | Binder | STET signal [s⁻¹]
1 | B1 | 0.082
2 | B2 | 0.052
